# Experimental data as given in patent publication US20260103496A1, “NEUREGULIN AND USE THEREOF” (ZENSUN (SHANGHAI) SCIENCE & TECHNOLOGY, CO., LTD., priority 2022, published 2026).
# Values joined by “and” are separate entries in the source; they are usually repeats but may differ in a detail not shown here. Equal values may be shown once.
# System: subjects with chronic systolic heart failure
# Test: Phase III clinical trial of recombinant human neuregulin for injection on cardiac function (LVESVI/LVEDVI), with enriched-subgroup analyses
# Assay type: in vivo
# Conditions: for average improvement in LVEDVI from baseline, enriched population compared with overall (general) population / average improvement in LVESVI from baseline, enriched population compared with overall (general) population: Day 30 after the administration
# Protocol: Example 1: A Multi-Center, Randomized, Double-Blind, Placebo-Controlled and Standard Treatment-Based Phase III Clinical Trial to Evaluate the Effect of Recombinant Human Neuregulin for Injection on Cardiac Function of Subjects with Chronic Systolic Heart Failure
# In this example, a multi-center, randomized, double-blind, placebo-controlled study was conducted based on standard treatment to evaluate the effects of recombinant human neuregulin for injection on the cardiac function of male patients with NT-proBNP ≤1700 pg/ml and female patients with NT-proBNP ≤4000 pg/ml, and to confirm its efficacy and safety.
# A multicenter, randomized, double-blind, placebo-controlled study was conducted based on standard treatment.
# Experimental group: recombinant human neuregulin for injection+standard basic treatment drugs (β receptor blocker, ACEI/ARB/ARNI, aldosterone receptor antagonist, etc.).
# • 2.1 Age is 18-75 years old, regardless of gender; • 2.2 heart failure has been definitely diagnosed for 3 months or more, and the condition is stable at present, with NYHA II-III grade and left ventricular ejection fraction (LVEF)≤40%; • 2.3 male Nt-proBNP ≤1700 pg/ml, female Nt-proBNP ≤4000 pg/ml; • 2.4 After receiving standard basic treatment drugs for heart failure for 3 months, the target dose or maximum tolerated dose has been reached for more than 1 month, or the dose has not been changed within 1 month; • 2.5 Understand and sign the informed consent form.
# Specification: Neucardin, 61 amino acids constitute EGF-like functional domain of Neuegulin-1β2 isomer, with molecular weight of 7054 Dal (1 μg=0.14 nmol); 250 μg/piece. • Dosage Form: Powder Injection • Administration Route: Intravenous Drip • Appearance: freeze-dried block or powder.
# 5. Data Collection: Evaluating the Effectiveness and Safety During the Screening Period, 30 Days and 90 Days after Administration.
# This example was carried out in many clinical research centers in China at the same time. 154 cases were actually enrolled, 78 cases in the Neuregulin experimental group and 76 cases in the placebo group. A total of 147 cases (73 cases in the experimental group and 74 cases in the placebo group) finally achieved the main end points.
# Through statistical analysis of the experimental results from Example 1, the inventors investigated, in this Example, the response rate of Neuregulin in improving LVESVI (by more than 13 mL/m^2) in an enriched population. The enriched population refers to patients with a baseline LVESVI ≥135 mL/m^2, accounting for approximately 41% of the total studied population.
# Through statistical analysis of the results from Example 1, the inventors investigated, in this Example, the response rate of Neuregulin in improving both LVESVI and LVEDVI (both exceeding 20 mL/m^2) in individual patients of the enriched population.
# [1] = 30 days after administration, P<0.05 vs placebo
# [2] = baseline LVESVI ≥135 mL/m^2, listed as neuregulin
# [3] = enriched population, baseline LVESVI ≥135 mL/m^2
# [4] = individual subject, Day 30 vs baseline, FAS
molecule,measurement,setting,value
"Neuregulin: 61 amino acids constitute EGF-like functional domain of Neuegulin-1β2 isomer, molecular weight 7054 Dal; SEQ ID NO: 1 (protein) SHLVKCAEKEKTFCVNGGECFMVKDLSNPSRYLCKCPNEFTGDRCQNYVMASFYKAEELYQ",patients with LVESVI reduction,"30-day data, compared with baseline",63%
same,ΔLVESVI,30 D,−5.62 ± 18.99 ml/m^2
same,ΔLVESVI,"90 D, P=0.0128",−5.23 ± 17.12 ml/m^2
same,improvement rate: LVESVI decreased by ≥5 ml/m^2 compared with the baseline,30 days after administration,45.2%
same,improvement rate: LVESVI decreased by ≥10 ml/m^2 compared with the baseline,30 days after administration,34.2%
same,improvement rate: LVESVI decreased by ≥15 ml/m^2 compared with the baseline,30 days after administration,23.3%
same,improvement rate: LVESVI decreased by ≥30 ml/m^2 compared with the baseline,30 days after administration,8.2%
same,improvement rate: LVESVI decreased by ≥35 ml/m^2 compared with the baseline,30 days after administration,5.5%
same,improvement rate: LVESVI decreased by ≥40 ml/m^2 compared with the baseline,30 days after administration,2.7%
same,improvement rate: LVESVI decreased by ≥20 ml/m^2 compared with the baseline,[1],17.8%
same,improvement rate: LVESVI decreased by ≥25 ml/m^2 compared with the baseline,[1],15.1%
same,"Increase in LVEDVI at Day 30 compared with the baseline was more than or equal to 5 ml/m^2, n/N(%)","Day 30, FAS",19/73(26.0) %
same,"Increase in LVEDVI at Day 30 compared with the baseline was more than or equal to 10 ml/m^2, n/N(%)","Day 30, FAS",14/73(19.2) %
same,"Increase in LVEDVI at Day 30 compared with the baseline was more than or equal to 15 ml/m^2, n/N(%)","Day 30, FAS",9/73(12.3) %
same,"Increase in LVEDVI at Day 30 compared with the baseline was more than or equal to 20 ml/m^2, n/N(%)","Day 30, FAS",3/73(4.1) %
same,"Increase in LVEDVI at Day 30 compared with the baseline was more than or equal to 25 ml/m^2, n/N(%)","Day 30, FAS",3/73(4.1) %
same,"Increase in LVEDVI at Day 30 compared with the baseline was more than or equal to 30 ml/m^2, n/N(%)","Day 30, FAS",1/73(1.4) %
same,"Increase in LVESVI at Day 30 compared with the baseline was more than or equal to 5 ml/m^2, n/N(%)","Day 30, FAS",15/73(20.5) %
same,"Increase in LVESVI at Day 30 compared with the baseline was more than or equal to 10 ml/m^2, n/N(%)","Day 30, FAS",10/73(13.7) %
same,"Increase in LVESVI at Day 30 compared with the baseline was more than or equal to 15 ml/m^2, n/N(%)","Day 30, FAS",5/73(6.8) %
same,"Increase in LVESVI at Day 30 compared with the baseline was more than or equal to 20 ml/m^2, n/N(%)","Day 30, FAS",3/73(4.1) %
same,"Increase in LVESVI at Day 30 compared with the baseline was more than or equal to 25 ml/m^2, n/N(%)","Day 30, FAS",1/73(1.4) %
same,"Increase in LVESVI at Day 30 compared with the baseline was more than or equal to 30 ml/m^2, n/N(%)","Day 30, FAS",1/73(1.4) %
same,"Reduction in LVEDVI at Day 30 compared with the baseline was more than or equal to 5 ml/m^2, n/N(%)","Day 30, FAS",43.8% and 32/73(43.8) %
same,"Reduction in LVEDVI at Day 30 compared with the baseline was more than or equal to 10 ml/m^2, n/N(%)","Day 30, FAS",30.1% and 22/73(30.1) %
same,"Reduction in LVEDVI at Day 30 compared with the baseline was more than or equal to 15 ml/m^2, n/N(%)","Day 30, FAS",21.9% and 16/73(21.9) %
same,"Reduction in LVEDVI at Day 30 compared with the baseline was more than or equal to 20 ml/m^2, n/N(%)","Day 30, FAS",17.8% and 13/73(17.8) %
same,"Reduction in LVEDVI at Day 30 compared with the baseline was more than or equal to 25 ml/m^2, n/N(%)","Day 30, FAS",16.4% and 12/73(16.4) %
same,"Reduction in LVEDVI at Day 30 compared with the baseline was more than or equal to 35 ml/m^2, n/N(%)","Day 30, FAS",6.8% and 5/73(6.8) %
same,"Reduction in LVEDVI at Day 30 compared with the baseline was more than or equal to 40 ml/m^2, n/N(%)","Day 30, FAS",5.5% and 4/73(5.5) %
same,"Reduction in LVEDVI at Day 30 compared with the baseline was more than or equal to 30 ml/m^2, n/N(%)","Day 30, FAS, P value of 0.046 vs placebo",13.7% and 10/73(13.7) %
same,LVESVI improved compared with that before administration,"Day 30 after administration, P=0.0137",5.62 ml/m^2
same,"average improvement in LVEDVI from baseline, enriched population compared with overall (general) population",baseline LVESVI ≥135 mL/m^2,greater average improvement in LVEDVI
same,"average improvement in LVESVI from baseline, enriched population compared with overall (general) population",baseline LVESVI ≥135 mL/m^2,greater average improvement in LVESVI
same,"average improvement in LVEDVI from baseline, enriched population compared with overall (general) population",[2],better average improvements in LVESVI or LVEDVI than the neuregulin treatment group in the general population
same,"average improvement in LVESVI from baseline, enriched population compared with overall (general) population",[2],better average improvements in LVESVI or LVEDVI than the neuregulin treatment group in the general population
same,"LVESVI and LVEDVI: Simultaneous increase by more than or equal to 5 ml/m^2, n/N(%)","Day 30 vs baseline, FAS",13/73(17.8) %
same,"LVESVI and LVEDVI: Simultaneous increase by more than or equal to 10 ml/m^2, n/N(%)","Day 30 vs baseline, FAS",9/73(12.3) %
same,"LVESVI and LVEDVI: Simultaneous increase by more than or equal to 15 ml/m^2, n/N(%)","Day 30 vs baseline, FAS",3/73(4.1) %
same,"LVESVI and LVEDVI: Simultaneous increase by more than or equal to 20 ml/m^2, n/N(%)","Day 30 vs baseline, FAS",2/73(2.7) %
same,"LVESVI and LVEDVI: Simultaneous increase by more than or equal to 25 ml/m^2, n/N(%)","Day 30 vs baseline, FAS",1/73(1.4) %
same,"LVESVI and LVEDVI: Simultaneous increase by more than or equal to 30 ml/m^2, n/N(%)","Day 30 vs baseline, FAS",1/73(1.4) %
same,persistence of the LVESVI improvement effect,"after 10-day administration, P=0.0128 at Day 90",could be maintained until Day 90 after the administration
same,response rate for a substantial improvement in LVESVI (a reduction of more than 13 mL/m^2),[3],50%
same,"response rate for both LVESVI and LVEDVI decreased by more than 20 mL/m^2, compared with placebo group",[3],significantly higher than that in the placebo group
same,"response rate for both LVESVI and LVEDVI reduced by ≥20 mL/m^2, enriched population compared with overall (general) population",[3],higher than that in the overall population
same,response rate for simultaneous improvements in both LVESVI and LVEDVI greater than 20 mL/m^2,"enriched population, baseline LVESVI ≥135 mL/m^2, individual subjects",26.5%
same,"response rate for both LVESVI and LVEDVI reduced by ≥20 mL/m^2, enriched population compared with overall (general) population","enriched population, baseline LVESVI ≥135 mL/m^2, listed as neuregulin",better response rate
same,"LVESVI and LVEDVI: Simultaneous reduction by more than or equal to 5 ml/m^2, n/N(%)",[4],37.0% and 27/73(37.0) %
same,"LVESVI and LVEDVI: Simultaneous reduction by more than or equal to 10 ml/m^2, n/N(%)",[4],23.3% and 17/73(23.3) %
same,"LVESVI and LVEDVI: Simultaneous reduction by more than or equal to 15 ml/m^2, n/N(%)",[4],19.2% and 14/73(19.2) %
same,"LVESVI and LVEDVI: Simultaneous reduction by more than or equal to 25 ml/m^2, n/N(%)",[4],12.3% and 9/73(12.3) %
same,"LVESVI and LVEDVI: Simultaneous reduction by more than or equal to 30 ml/m^2, n/N(%)",[4],6.8% and 5/73(6.8) %
same,"LVESVI and LVEDVI: Simultaneous reduction by more than or equal to 35 ml/m^2, n/N(%)",[4],4.1% and 3/73(4.1) %
same,"LVESVI and LVEDVI: Simultaneous reduction by more than or equal to 40 ml/m^2, n/N(%)",[4],1.4% and 1/73(1.4) %
same,"LVESVI and LVEDVI: Simultaneous reduction by more than or equal to 20 ml/m^2, n/N(%)","individual subject, Day 30 vs baseline, FAS, p-value 0.0048 vs placebo",16.4% and 12/73(16.4) %
